B1: recombinant humanized anti-CD66c antibody Protein ID 3004 (Vk7 + VH5) (antibody, human IgG1, V domains shown)
VH: QVQLVQSGAEVKKPGASVKISCKASGYSFTDYTMNWVRQAHGQNLEWIGLINPFHGGTVSNQRFKVKATLTVDVSTNTAYMELSRLRSDDTAVYYCVRGDPVRHYYALAYWGQGTLVTVSS
VL: DIQMTQSPSTLSASVGDRVTITCGASENVYGTLNWYQRKPGKAPKLLIYGATNLADGVPSRFSGSGSGTEYTLTISSLQPDDFATYYCQNVLSAPYTFGGGTKLEIK
notes: also called #41
B2: recombinant humanized anti-CD66c antibody Protein ID 3010 (Vk7 + VH7) (antibody, human IgG1, V domains shown)
VH: QVQLVQSGAEVKKPGASMKISCKASGYSFTDYTMNWVRQAPGQGLEWIGLINPFHGGTVSNQRFKVKATLTVDVSTNTAYMELSRLRSDDTAVYYCVRGDPVRHYYALAYWGQGTLVTVSS
VL: DIQMTQSPSTLSASVGDRVTITCGASENVYGTLNWYQRKPGKAPKLLIYGATNLADGVPSRFSGSGSGTEYTLTISSLQPDDFATYYCQNVLSAPYTFGGGTKLEIK
notes: also called #45
B3: recombinant humanized anti-CD66c antibody Protein ID 3019 (Vk7 + VH10) (antibody, human IgG1, V domains shown)
VH: QVQLVQSGAEVKKPGASVKVSCKASGYSFTDYTMNWVKQAPGQNLEWIGLINPFHGGTVSNQRFKVKATMTVDVSTNTAYMELSRLRSDDTAVYYCVRGDPVRHYYALAYWGQGTLVTVSS
VL: DIQMTQSPSTLSASVGDRVTITCGASENVYGTLNWYQRKPGKAPKLLIYGATNLADGVPSRFSGSGSGTEYTLTISSLQPDDFATYYCQNVLSAPYTFGGGTKLEIK
notes: also called hu 3019; #51
B4: recombinant humanized anti-CD66c antibody Protein ID 3046 (Vk8 + VH7) (antibody, human IgG1, V domains shown)
VH: QVQLVQSGAEVKKPGASMKISCKASGYSFTDYTMNWVRQAPGQGLEWIGLINPFHGGTVSNQRFKVKATLTVDVSTNTAYMELSRLRSDDTAVYYCVRGDPVRHYYALAYWGQGTLVTVSS
VL: DIQMTQSPSTLSASVGDRVTITCRASENVYGTLNWYQRKPGKAPKLLIYGATNLADGMPSRFSGSGSGTEYTLTISSLQPDDFATYYCQNVLSAPYTFGGGTKLEIK
notes: also called #74

Experiments:
[1] = biological target: T1, CD66c (Cluster of Differentiation 66c) on cells (UniProt P40199 35-320, limits assumed); assay: flow cytometry on CD66c-positive A549 cells, FITC anti-human IgG
T1 construct: whole, on cells; also called CEACAM6; CEACAM 6
T1 sequence (looked up): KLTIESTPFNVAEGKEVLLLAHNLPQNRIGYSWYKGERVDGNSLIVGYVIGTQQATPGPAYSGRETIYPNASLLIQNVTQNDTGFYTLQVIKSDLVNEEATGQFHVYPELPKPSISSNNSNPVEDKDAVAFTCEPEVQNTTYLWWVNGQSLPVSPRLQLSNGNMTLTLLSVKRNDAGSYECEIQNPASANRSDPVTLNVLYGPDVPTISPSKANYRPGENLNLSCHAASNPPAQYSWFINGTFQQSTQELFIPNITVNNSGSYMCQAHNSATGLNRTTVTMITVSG
Experimental: Each expressed 96 recombinant humanized antibody was poured and reacted in a test tube containing the same amount […] of CD66c-positive A549 non-small-cell lung cancer cell line at 4° C. for 30 minutes, washed with PBS, and treated with FITC-conjugated goat anti-Huma IgG (DiNona Inc, Korea) was added and incubated at 4° C. for 15 minutes. After washing with PBS, the cells were analyzed with a flow cytometer (Stratedigm, S1000EXi) and the results are shown below.
Among the 96 recombinant humanized antibody candidates, eight were firstly selected based on the degree of expression, the presence of aggregation, and the degree of cell binding (Table 9 and Table 10, FIGS. 3A to 3E).

[2] = biological target: T2, Antigen CD66c (CEACAM6; Sino Biological, Inc.) (UniProt P40199 35-320); assay: ELISA, CEACAM6 coated 100 ng/well, antibody at 0.17 ng/ml
T2 construct: Bought antigen, coated on the ELISA plate; construct not described; also called CECACAM6 (CD66c) antigen; CD66c antigen
T2 sequence (looked up): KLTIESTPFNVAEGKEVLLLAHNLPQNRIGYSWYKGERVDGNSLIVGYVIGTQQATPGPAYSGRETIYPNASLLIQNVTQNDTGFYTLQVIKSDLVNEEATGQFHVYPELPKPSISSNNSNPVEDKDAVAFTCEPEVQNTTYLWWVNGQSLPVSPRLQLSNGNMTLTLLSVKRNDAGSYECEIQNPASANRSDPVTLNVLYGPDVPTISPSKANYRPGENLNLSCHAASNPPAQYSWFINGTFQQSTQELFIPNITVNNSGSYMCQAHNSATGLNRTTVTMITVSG
Experimental: (§1) Antigen CD66c (CEACAM6; Sino Biological, Inc.) and CEACAM1 antigen (Sino Biological, Inc.) were coated on a 96-well plate at a rate of 100 ng per well and then blocked. The primary antibody was diluted 3-fold from 10 ug/ml and bound at 37° C. for 1 hour. […] goat anti-Human Ig-HRP conjugate (Jackson ImmunoResearch) as a secondary antibody was diluted 1:10,000 and incubated at 37° C. for 30 minutes. The washing was carried out at three times between each step, and the TMB reaction was performed, stopped with 1N H₂SO₄ solution at the same amount of TMB solution (100 ul) and then OD value was measured at 450 nm.
(§2) As a result of the experiment, the binding affinities to CD66c antigen of the five kinds of recombinant humanized antibodies selected from among 96 kinds of recombinant humanized antibodies are shown in FIG. 4a, Table 12, FIG. 4b and Table 13. FIG. 4a and Table 12 show the binding capacity of the antibodies to CECACAM6 CD66c) antigen, and FIG. 4b and Table 13 are the results for the CEACAM1 (CD66a) antigen.

[3] = biological target: T2, Antigen CD66c (CEACAM6; Sino …); assay: ELISA, CEACAM6 coated 100 ng/well, antibody at 0.51 ng/ml
Experimental: as §1, §2

[4] = biological target: T2, Antigen CD66c (CEACAM6; Sino …); assay: ELISA, CEACAM6 coated 100 ng/well, antibody at 1.52 ng/ml
Experimental: as §1, §2

[5] = biological target: T2, Antigen CD66c (CEACAM6; Sino …); assay: ELISA, CEACAM6 coated 100 ng/well, antibody at 4.57 ng/ml
Experimental: as §1, §2

[6] = biological target: T2, Antigen CD66c (CEACAM6; Sino …); assay: ELISA, CEACAM6 coated 100 ng/well, antibody at 13.72 ng/ml
Experimental: as §1, §2

[7] = biological target: T2, Antigen CD66c (CEACAM6; Sino …); assay: ELISA, CEACAM6 coated 100 ng/well, antibody at 41.15 ng/ml
Experimental: as §1

[8] = biological target: T2, Antigen CD66c (CEACAM6; Sino …); assay: ELISA, CEACAM6 coated 100 ng/well, antibody at 123.46 ng/ml
Experimental: as §1, §2

[9] = biological target: T2, Antigen CD66c (CEACAM6; Sino …); assay: ELISA, CEACAM6 coated 100 ng/well, antibody at 370.37 ng/ml
Experimental: as §1, §2

[10] = biological target: T2, Antigen CD66c (CEACAM6; Sino …); assay: ELISA, CEACAM6 coated 100 ng/well, antibody at 1111.11 ng/ml
Experimental: as §1, §2

[11] = biological target: T2, Antigen CD66c (CEACAM6; Sino …); assay: ELISA, CEACAM6 coated 100 ng/well, antibody at 3333.33 ng/ml
Experimental: as §1, §2

[12] = biological target: T2, Antigen CD66c (CEACAM6; Sino …); assay: ELISA, CEACAM6 coated 100 ng/well, antibody at 10000.00 ng/ml
Experimental: as §1, §2

Row | Binder | % (% gated × mean), against the chimeric antibody [1] | % gated [1] | Mean (fluorescence) [1] | OD 450 nm [2] | OD 450 nm [3] | OD 450 nm [4] | OD 450 nm [5] | OD 450 nm [6] | OD 450 nm [7] | OD 450 nm [8] | OD 450 nm [9] | OD 450 nm [10] | OD 450 nm [11] | OD 450 nm [12]
1 | B1 | 85% | 71% | 541 |  |  |  |  |  |  |  |  |  |  | 
2 | B2 | 85.8% | 70% | 554 |  |  |  |  |  |  |  |  |  |  | 
3 | B3 | 86.9% | 70% | 561 | 0.68 OD 450 nm | 0.8 OD 450 nm | 0.95 OD 450 nm | 1.32 OD 450 nm | 1.77 OD 450 nm | 2.45 OD 450 nm | 3.04 OD 450 nm | 3.23 OD 450 nm | 3.34 OD 450 nm | 3.26 OD 450 nm | 3.13 OD 450 nm
4 | B4 | 82.2% | 71% | 523 |  |  |  |  |  |  |  |  |  |  | 

From patent US20220119518A1 (KUMHO HT, published 2022)
